Target: AAVhum.8 capsid (adeno-associated virus 8 (nonhuman primate isolate)) (UniProt Q8JQF8)
Assay: cryo-EM structure; purified AAVhum.8 vectors vitrified on Quantifoil grids; Titan Krios 300 kV; capsid reconstructed in cisTEM; 60-mer VP3 model refined against the map

Substance: AAVhum.8 capsid (from UniProt Q8JQF8 218-738) (complex)
- stoichiometry N: 60

Reference: article PMC8428401
